This sample holds only a part of the variants without activity.
B1: TPR 5TU (parent)
chain: GGAUCUUCUCGAUCUAACAAAAAAGACAAAUCUGCCACAAAGCUUGAGAGCAUCUUCGGAUGCAGAGGCGGCAGCCUUCGGUGGCGCGAUAGCGCCAACGUUCUCAACUAUGACACGCAAAACGCGUGCUCCGUUGAAUGGAGUUUAUCAUG

Variants of: B1
Assay: polymerase ribozyme fitness, log enrichment relative to wild type (log ratio); higher = more active; in vitro selection for triplet polymerase activity
Summary of the method: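 After PCR construction and transcription, each subunit's mutant library from a heterodimeric triplet polymerase ribozyme was annealed with a biotinylated primer, the partner subunit and triplets. Incubation was frozen, at −7 °C, and extended constructs were gel-excised, bound to streptavidin beads and amplified by RT-PCR, in one selection round done in triplicate. Fitness is the logarithm of a genotype's enrichment divided by that of the wild type, from inverse-variance-weighted replicate averages of Illumina-sequenced inputs and outputs. The base of the logarithm is 2, and genotypes needed ≥10 input reads and ≥1 read per output.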

Variant	polymerase ribozyme fitness (log ratio)
G42A C43A U82A A98G	≤ -4.2
A41C A89U C95U G124A C125G	-1.75
A41C C93U C105U	-1.68
A41G C95U A122G C149A	≤ -4.2
A41C C95U	-2.15
A41C C95A	-0.7
A41C C95G	-0.72
A40U G58C A113C G124A	-2.93
A41U G74A G94C	≤ -4.2
A41U G74A C103U C114U U134C	≤ -4.2
A41C U55A G58C A98U	-0.108
A40U G50C G67C C103A C129G U144G	≤ -4.2
A41G G50C C125U A142G	-3.92
A41G G42A G48C C93A A106C U109C A137C	≤ -4.2
A41U G59A A73G A89U C93G A107G	≤ -4.2
A41U U53A G74C U82C	≤ -4.2
A41C A107C G133A U144G	≤ -4.2
A40U G62A C131G G136A	-3.43
A41U C54A C79U G88C U148C	≤ -4.2
A41C U55C C85G C108U G126A	≤ -4.2
A41C U56A U82A A150G	-1.45

Variant	polymerase ribozyme fitness (log ratio)
A41C C63G A64C U111C	≤ -4.2
A41G G143U	-1.73
A40U C87U A89G	-3.2
A41C C57U C87G A98U G136U A147C	≤ -4.2
A41G C51A G83A	-2.57
A41U A89U C93U G117U A147U	-2.89
G42A G48U A52U C75A U90C	≤ -4.2
A41C G92U A98G C123G G133C U134A G152U	≤ -4.2
A40U U61A A107U G128U U151C	≤ -4.2
A40U G50C C85U	-2.29
A40U C114U	-2.19
A41U U53A G88A U101G C108U G128C A142C	≤ -4.2
G42A A73G C87U	≤ -4.2
A41C A49U U53A A60C G88U A122U U134A	≤ -4.2
G42A A52G U61G G86A C114A	-3.88
A41C C69A	-2.53
A40U G59U C75A C85U U109A	≤ -4.2
A41C C85U A122U G126C	-0.655
A41G C93A G124U	-1.5
A41C C79U G94U G100A C125A	-2.23
A41U C87A A120C U139C A142U	≤ -4.2

Variant	polymerase ribozyme fitness (log ratio)
A41C U53A U56A A66C C79G G84U	≤ -4.2
A41C U61A G143C	-3.94
A41C A106C	-0.881
A41C C85U C99G C132G U139A	≤ -4.2
A41U G83U G84U A98U A120U G124A	-3.95
A41C C57U A89U G92C C116G C125A	≤ -4.2
A41U C85A A98G A122U G152U	≤ -4.2
A41C G152U	-2.69
A41C G59C U82C G86C C108G G141U	≤ -4.2
A41C U134G	-2.46
A41C G58C U82G A106G A137G	-2.57
A41G A49C G68U C76U C93U A97U	≤ -4.2
A41C U56A C63A G83A	-0.629
A41G A98U C103G A138C	≤ -4.2
A41U U55A C85A A150U	-2.65
A40U G92C U102C C103G A113G C132G U146C G152U	≤ -4.2
A41G U44A U61C C75U A142C	≤ -4.2
A41C U53A C76U	-1.65
A40U U55A G59A C79U U82G G83A G128A U139G G143A	≤ -4.2
A40U C87U	-0.375
A40U C87A	-3.87

Variant	polymerase ribozyme fitness (log ratio)
A41C G50A G86U A137C C149A	≤ -4.2
A41G G42U A66U G74A U151G	≤ -4.2
A41U C85G	-2.37
A41C C85U C87U G133C G143A	-4.18
A41G G48A C87A U148C	≤ -4.2
A41U C57U G80A	-1.12
A41G C75G G92C U146A	≤ -4.2
A41U C63U U102C	-3.6
A41G U146G	-0.0573
A41C A91C A106U U148C	≤ -4.2
G42A C75G C87A	≤ -4.2
A41U G50U A64U C118G A150C	≤ -4.2
A41C G46A U90A A150G	≤ -4.2
A41C C93G U144C	-3.7
A40U U55A C85A C116A	-0.563
A41C G50A A52C C54U U56A C75U C87U U146G A150G	≤ -4.2
A41C A47C C96U C103U A115G	-3.11
A41C G80C	-4.11
A41C U45G U53A G83C A91U C93U A115G U144A	≤ -4.2
G42A C54U G117A	≤ -4.2

— the RNAGym collection of RNA variant scans (doi:10.1073/pnas.2313332121)
